Laboratory results taken from PMC4391858.

What was measured:
[1] = cycloheximide chase, Western blot, CHO cells; conditions: glycan lost; control: wild type DLL3
[2] = confocal immunocytochemistry of coexpressed DLL1, CHO cells; conditions: glycan lost; control: wild type DLL3

B1: Delta-like 3 (DLL3): DLL3-S286A,T403V (protein)
parent chain: MVSLQVSPLSQTLILAFLLPQALPAGVFELQIHSFGPGPGLGTPRSPCNARGPCRLFFRVCLKPGVSQEATESLCALGAALSTSVPVYTEHPGESAAALPLPDGLVRVPFRDAWPGTFSLVIETWREQLGEHAGGPAWNLLARVVGRRRLAAGGPWARDVQRTGTWELHFSYRARCEPPAVGAACARLCRSRSAPSRCGPGLRPCTPFPDECEAPSVCRPGCSPEHGYCEEPDECRCLEGWTGPLCTVPVSTSSCLNSRVPGPASTGCLLPGPGPCDGNPCANGGSCSETSGSFECACPRGFYGLRCEVSGVTCADGPCFNGGLCVGGEDPDSAYVCHCPPGFQGSNCEKRVDRCSLQPCQNGGLCLDLGHALRCRCRAGFAGPRCEHDLDDCAGRACANGGTCVEGGGSRRCSCALGFGGRDCRERADPCASRPCAHGGRCYAHFSGLVCACAPGYMGVRCEFAVRPDGADAVPAAPRGLRQADPQRFLLPPALGLLVAAGLAGAALLVIHVRRRGPGQDTGTRLLSGTREPSVHTLPDALNNLRLQDGAGDGPSSSADWNHPEDGDSRSIYVIPAPSIYAREDWLIQVLF
[1]
  degradation_or_half_life: no change
[2]
  localisation_or_trafficking, other: cells with DLL1 relocalised outside Golgi: decreases, the intracellular DLL1 staining did not change obviously (10 out of 14 cells
